Measurements from patent US8821943B2, “Methods and compositions for targeted delivery of therapeutic agents” (Board of Regents of the University of Nebraska, priority 2006, dated 2014).

Legend:
ARPE-19 cells = assay: Nanoparticle uptake by human retinal pigment epithelial cells; assay type: cell-based; details: 1 ml of 100 μg/ml suspension in serum free medium
Experimental: A study was performed to examine the effect of targeting moieties on biodegradable and non-biodegradable carrier particles and their uptake in ocular cells. The biodegradable and non-biodegradable targeted carrier particles of the preceding Example were used. Uptake of nanoparticles by human retinal pigment epithelial cells (ARPE-19 cell line) was quantified by measuring fluorescence in cell lysate obtained after incubation of targeted or untargeted (unconjugated) nanoparticles with ARPE-19 cell monolayers.
ARPE-19 cells were obtained from American Type Culture Collection (ATCC, Manassas, Va.). The cells were maintained in culture according to supplier's recommendation. All studies were conducted using confluent cells of passages 20-30. Dulbecco's modified Eagle's medium (DMEM-F/12), fetal bovine serum, penicillin-streptomycin and L-glutamine were obtained from Gibco-BRL (Invitrogen Inc., Carlsbad, Calif.). Cell culture flasks (T-75 cm^2) and plates were purchased from Corning Inc., (Corning, N.Y.). To investigate the uptake of particles, ARPE-19 cells between 20-30 passages were cultured in 24-well plates until confluency. […] Fluorescence intensity of the cell lysates was determined at an excitation and emission wavelength of 505 and 515 nm, respectively, for FluoSpheres®. […]

[1] = Particle size, polydispersity and zeta-potential by dynamic light scattering; assay type: physicochemical; details: Table 6
Experimental: Nanoparticle carrier particles were formed by the methods of the preceding Example, and characterized as follows. The particle size and the zeta-potential were measured using Zeta Plus zeta-potential analyzer (Brookhaven Instruments Ltd., New York, N.Y.), which employs the dynamic light scattering technique for particle size measurement. The particle size and zeta-potential measurements were made after 1:1000 dilution of particle stock in filtered deionized water. Further, the particles were visualized using a transmission electron microscope (TEM). The carbon-coated grids were floated on a suspension droplet of plain or functionalized nanoparticles on a flexible plastic film (Parafilm, Pechiney Plastic Packaging, Neenah, Wis.) to allow the adsorption of nanoparticles onto the grid. After drying the particles, uranyl acetate was added as a negative stain to the carbon grid and allowed to react with the particles. This procedure makes the particles electron dense, allowing their visualization using an electron microscope. The particles were photographed using EM410 Phillips electron microscope (Eindhoven, The Netherlands) set at 60 kV and a magnification of 153000×.
Characterization of particles: The particle size and the zeta-potential were measured using ZetaPlus® zeta-potential analyzer, Brookhaven Instruments Ltd. (New York, N.Y.), which employs the dynamic light scattering technique for particle size measurement. The particle size and zeta-potential measurements were carried out after 1:1000 dilution of particle stock in filtered deionized water before lyophilization in filtered deionized water. The effective diameter of conjugated nanoparticles was higher than that of unconjugated nanoparticles.
Particle Size Analysis: Particle size and zeta-potential of the nanoparticles before and after conjugation following lyophilization were measured in double distilled water (100 μl of particle/1 ml of water) using dynamic light scattering (DLS). After lyophilization the plasmid loaded particles were weighed (1 mg) into glass Kimble tubes. To each tube, 1 ml of double distilled water was added and vortexed at high speed (Vortex Genie, Scientific Industries, Bohemia, N.Y.) till the particles were resuspended. The particle size and zeta potential was determined using dynamic light scattering after dilution (1:10 in double distilled water) (Brookhaven Instruments Corp., Holtsville, N.Y.). Nanoparticle size after lyophilization was 210.4±0.68 nm and zeta potential was −32.85±0.87 mV. Nanoparticle size and zeta potential was measured after conjugation with deslorelin and transferrin. Similarly, the unconjugated nanoparticles were also treated under the same conditions as with the conjugated nanoparticles (the conjugation protocol as mentioned above).
Transport studies were conducted in bovine nasal tissue. Bovine nasal tissue was obtained from freshly slaughtered cattle, and different regions (MTA, MTP, ITP) were prepared as described in Example 13. Nanoparticles coupled to deslorelin or transferring via aldehyde sulfate moieties were prepared as described in Example 3. The nanoparticle size was measured using a Zeta Plus Analyzer (Brookhaven Instruments Limited, UK). Particle size was analyzed before and after ligand conjugation in deionized filtered water.

LHRH-receptor = target: T1, LHRH-receptor (Bos taurus, UniProt P32236); assay: Receptor binding assays (kinetic, saturation, competition) with 125I-deslorelin in bovine pituitary and nasal tissue homogenates; details: 4° C.; remained stable until 4 hr
T1 construct: The tissue homogenate was then centrifuged at 15000 g for 15 min at 4° C. to separate the crude membrane from the buffer; from tissue; host or cells: bovine nasal mucosa (MTA, MTP, ITP regions) and bovine pituitary, crude membrane homogenates
T1 sequence (P32236 1-328): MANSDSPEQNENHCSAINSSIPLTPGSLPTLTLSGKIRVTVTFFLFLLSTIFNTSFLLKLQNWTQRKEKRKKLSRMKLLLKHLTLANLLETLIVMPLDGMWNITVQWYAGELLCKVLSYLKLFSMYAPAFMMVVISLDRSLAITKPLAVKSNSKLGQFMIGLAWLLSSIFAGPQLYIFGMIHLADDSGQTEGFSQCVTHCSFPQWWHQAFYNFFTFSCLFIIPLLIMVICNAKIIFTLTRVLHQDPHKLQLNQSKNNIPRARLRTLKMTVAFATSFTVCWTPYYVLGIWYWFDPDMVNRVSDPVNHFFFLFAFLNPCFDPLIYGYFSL
Experimental: Radioactivity was measured in the pellet using a Perkin-Elmer γ-counter.
Reprod. […] Reprod. […] Radioactivity was measured in the pellet using a Perkin-Elmer γ-counter. […] The experiment was repeated three times.
Competition Studies: To determine the amount of unlabelled deslorelin required to displace the radioactivity, competition studies were conducted. […] Assays were performed in triplicates. At the end of 4 hr, the incubation tubes were centrifuged at 10,000 g for 20 min at 4° C. to separate the bound fraction. Radioactivity was measured in the pellet using a Perkin-Elmer γ-counter. The same controls as in the kinetic and saturation studies were used. The experiment was repeated three times.

Row | Substance | percentage uptake at 3 h by ARPE-19 cells (ARPE-19 cells) [%] | Zeta potential [1] [mV] | Effective diameter ([1]; 1:1000 dilution in filtered deionized water) [nm] | time at which binding reached a maximum (LHRH-receptor) [h]
1 | Transferrin-PLGA: transferrin conjugated nile red loaded PLGA nanoparticles | 3.32±0.1 | −17.94 ± 1.5 | 385.8 ± 4.6 | 
2 | ^125I-deslorelin: I^125 labeled deslorelin radioligand (EHWSYWLRP; D-residues; non-natural residues) |  |  |  | 1.5
